Data published in article PMC9482650, “Quantitative fragmentomics allow affinity mapping of interactomes” (Nature Communications, 2022).

T1: MPP6, Q9NZW5
T1 sequence (Q9NZW5 125-219, limits assumed, looked up): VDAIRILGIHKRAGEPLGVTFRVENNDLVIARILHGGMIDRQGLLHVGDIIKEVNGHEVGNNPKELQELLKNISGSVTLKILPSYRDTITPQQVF

T2: GRIP1_4, Q9Y3R0
T2 sequence (Q9Y3R0 467-571, limits assumed, looked up): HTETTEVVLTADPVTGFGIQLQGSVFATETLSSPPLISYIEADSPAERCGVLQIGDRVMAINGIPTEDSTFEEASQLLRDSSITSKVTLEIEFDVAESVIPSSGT

T3: SNTG1, Q9NSN8
T3 sequence (Q9NSN8 52-150, limits assumed, looked up): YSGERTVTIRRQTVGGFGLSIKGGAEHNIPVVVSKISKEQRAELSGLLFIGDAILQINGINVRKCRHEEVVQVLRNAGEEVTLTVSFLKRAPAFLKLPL

T4: APBA1_1, Q02410
T4 sequence (Q02410 651-752, limits assumed, looked up): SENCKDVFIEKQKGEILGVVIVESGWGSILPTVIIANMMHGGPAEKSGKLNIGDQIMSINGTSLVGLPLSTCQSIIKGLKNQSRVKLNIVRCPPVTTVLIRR

T5: LIN7A, O14910
T5 sequence (O14910 103-200, limits assumed, looked up): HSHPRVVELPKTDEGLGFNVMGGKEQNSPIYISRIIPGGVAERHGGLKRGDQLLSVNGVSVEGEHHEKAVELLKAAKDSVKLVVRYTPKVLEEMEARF

T6: DLG3_3, Q92796
T6 sequence (Q92796 374-475, limits assumed, looked up): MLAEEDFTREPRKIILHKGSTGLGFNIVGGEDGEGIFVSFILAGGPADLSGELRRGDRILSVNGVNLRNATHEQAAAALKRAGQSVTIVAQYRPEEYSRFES

T7: MPP7, Q5T2T1
T7 sequence (Q5T2T1 134-230, limits assumed, looked up): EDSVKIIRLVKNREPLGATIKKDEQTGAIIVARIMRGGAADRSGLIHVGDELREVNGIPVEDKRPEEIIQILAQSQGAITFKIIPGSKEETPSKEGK

T8: RAPGEF6, Q8TEU7
T8 sequence (Q8TEU7 525-625, limits assumed, looked up): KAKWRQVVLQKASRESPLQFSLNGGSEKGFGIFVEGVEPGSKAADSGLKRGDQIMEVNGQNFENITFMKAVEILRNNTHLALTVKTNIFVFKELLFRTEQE


Experiments:
Assay in all cases: holdup assay
Parameters in all cases: key: below the threshold = too weak to quantify, mostly under pKd 3.1 to 4
Settings in all cases: plain residues with an end cap or a label only (N-terminal biotin on a linker: ado-ado)
MPP6, Q9NZW5 = target: T1, MPP6, Q9NZW5
IL16_3, Q14005 = target: IL16_3, Q14005
IL16_3, Q14005, sequence (Q14005 1107-1207): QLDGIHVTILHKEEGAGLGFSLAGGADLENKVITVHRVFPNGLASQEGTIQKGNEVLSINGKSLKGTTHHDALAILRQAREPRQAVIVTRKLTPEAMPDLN

GRIP1_4, Q9Y3R0 = target: T2, GRIP1_4, Q9Y3R0
DLG1_3, Q12959 = target: DLG1_3, Q12959
DLG1_3, Q12959, sequence (Q12959 457-571): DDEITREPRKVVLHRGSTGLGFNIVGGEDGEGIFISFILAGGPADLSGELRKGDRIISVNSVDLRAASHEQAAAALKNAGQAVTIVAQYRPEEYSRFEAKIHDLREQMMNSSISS

GRIP2_4, Q9C0E4 = target: GRIP2_4, Q9C0E4
GRIP2_4, Q9C0E4, sequence (Q9C0E4 446-548): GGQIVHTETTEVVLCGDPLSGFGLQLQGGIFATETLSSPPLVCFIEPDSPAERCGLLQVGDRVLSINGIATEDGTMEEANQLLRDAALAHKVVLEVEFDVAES

FRMPD2_1, Q68DX3 = target: FRMPD2_1, Q68DX3
FRMPD2_1, Q68DX3, sequence (Q68DX3 770-861): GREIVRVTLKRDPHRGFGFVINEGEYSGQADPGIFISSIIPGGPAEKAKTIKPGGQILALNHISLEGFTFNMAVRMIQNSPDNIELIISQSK

HTRA2, O43464 = target: HTRA2, O43464
HTRA2, O43464, sequence (O43464 355-458): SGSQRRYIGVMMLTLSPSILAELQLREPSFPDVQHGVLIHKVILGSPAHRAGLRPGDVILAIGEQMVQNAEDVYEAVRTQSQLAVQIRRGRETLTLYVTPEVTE

MAGI1_1, Q96QZ7 = target: MAGI1_1, Q96QZ7
MAGI1_1, Q96QZ7, sequence (Q96QZ7 1-106): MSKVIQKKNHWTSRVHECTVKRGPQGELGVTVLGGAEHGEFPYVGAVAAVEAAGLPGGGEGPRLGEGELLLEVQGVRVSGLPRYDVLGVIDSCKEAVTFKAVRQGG

FRMPD3, Q5JV73 = target: FRMPD3, Q5JV73
FRMPD3, Q5JV73, sequence (Q5JV73 12-100): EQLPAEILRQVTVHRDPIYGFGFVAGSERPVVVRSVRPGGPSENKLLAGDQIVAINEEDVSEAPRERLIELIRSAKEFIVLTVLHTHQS

LNX1_3, Q8TBB1 = target: LNX1_3, Q8TBB1
LNX1_3, Q8TBB1, sequence (Q8TBB1 500-596): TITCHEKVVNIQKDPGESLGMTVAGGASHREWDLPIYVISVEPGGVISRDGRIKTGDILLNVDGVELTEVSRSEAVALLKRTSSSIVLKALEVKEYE

NHERF4_4, Q86UT5 = target: NHERF4_4, Q86UT5
NHERF4_4, Q86UT5, sequence (Q86UT5 464-550): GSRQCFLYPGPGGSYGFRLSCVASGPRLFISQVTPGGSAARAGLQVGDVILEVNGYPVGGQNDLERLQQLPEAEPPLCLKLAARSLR

SNTG1, Q9NSN8 = target: T3, SNTG1, Q9NSN8
MAGI1_2, Q96QZ7 = target: MAGI1_2, Q96QZ7
MAGI1_2, Q96QZ7, sequence (Q96QZ7 456-580): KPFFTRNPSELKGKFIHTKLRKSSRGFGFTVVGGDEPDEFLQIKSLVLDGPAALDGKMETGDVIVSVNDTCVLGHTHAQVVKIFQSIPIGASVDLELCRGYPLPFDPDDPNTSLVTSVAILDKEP

APBA1_1, Q02410 = target: T4, APBA1_1, Q02410
GRIP2_5, Q9C0E4 = target: GRIP2_5, Q9C0E4
GRIP2_5, Q9C0E4, sequence (Q9C0E4 544-642): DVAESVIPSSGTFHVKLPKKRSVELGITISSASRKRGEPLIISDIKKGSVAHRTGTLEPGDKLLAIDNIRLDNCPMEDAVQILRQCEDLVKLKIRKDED

LIN7A, O14910 = target: T5, LIN7A, O14910
DLG3_3, Q92796 = target: T6, DLG3_3, Q92796
LDB3, O75112 = target: LDB3, O75112
LDB3, O75112, sequence (O75112 1-94): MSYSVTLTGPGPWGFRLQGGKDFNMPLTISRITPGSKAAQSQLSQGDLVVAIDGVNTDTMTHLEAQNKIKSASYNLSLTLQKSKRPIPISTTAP

MAST1, Q9Y2H9 = target: MAST1, Q9Y2H9
MAST1, Q9Y2H9, sequence (Q9Y2H9 962-1065): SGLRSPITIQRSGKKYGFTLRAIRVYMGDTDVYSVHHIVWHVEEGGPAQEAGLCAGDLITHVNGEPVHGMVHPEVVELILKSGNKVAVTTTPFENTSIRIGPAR

MPP7, Q5T2T1 = target: T7, MPP7, Q5T2T1
PDZRN4_1, Q6ZMN7 = target: PDZRN4_1, Q6ZMN7
PDZRN4_1, Q6ZMN7, sequence (Q6ZMN7 213-318): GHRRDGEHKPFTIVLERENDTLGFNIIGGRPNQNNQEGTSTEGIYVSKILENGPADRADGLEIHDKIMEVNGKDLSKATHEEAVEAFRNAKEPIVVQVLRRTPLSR

Inadl_9, Q8NI35 = target: Inadl_9, Q8NI35
Inadl_9, Q8NI35, sequence (Q8NI35 1530-1615): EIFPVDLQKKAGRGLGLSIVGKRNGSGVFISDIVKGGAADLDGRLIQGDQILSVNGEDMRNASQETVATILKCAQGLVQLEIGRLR

GRIP2_6, Q9C0E4 = target: GRIP2_6, Q9C0E4
GRIP2_6, Q9C0E4, sequence (Q9C0E4 648-740): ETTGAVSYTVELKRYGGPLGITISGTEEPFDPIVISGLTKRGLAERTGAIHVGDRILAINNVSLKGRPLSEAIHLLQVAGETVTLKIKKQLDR

HTRA1, Q92743 = target: HTRA1, Q92743
HTRA1, Q92743, sequence (Q92743 360-477): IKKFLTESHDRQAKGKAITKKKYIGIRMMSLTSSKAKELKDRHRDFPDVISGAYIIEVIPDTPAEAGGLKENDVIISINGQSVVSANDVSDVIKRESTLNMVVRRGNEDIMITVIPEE

CASK, O14936 = target: CASK, O14936
CASK, O14936, sequence (O14936 487-570): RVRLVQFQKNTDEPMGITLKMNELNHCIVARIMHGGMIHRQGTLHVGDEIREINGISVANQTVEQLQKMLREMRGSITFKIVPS

LNX1_1, Q8TBB1 = target: LNX1_1, Q8TBB1
LNX1_1, Q8TBB1, sequence (Q8TBB1 261-371): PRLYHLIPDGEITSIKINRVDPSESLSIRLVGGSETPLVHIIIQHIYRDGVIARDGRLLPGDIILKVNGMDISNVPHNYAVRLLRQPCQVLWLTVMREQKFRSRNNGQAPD

LIMK2, P53671 = target: LIMK2, P53671
LIMK2, P53671, sequence (P53671 143-248): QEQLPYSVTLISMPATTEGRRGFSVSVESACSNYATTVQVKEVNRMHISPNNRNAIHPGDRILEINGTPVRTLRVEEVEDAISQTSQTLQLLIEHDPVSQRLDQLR

RAPGEF6, Q8TEU7 = target: T8, RAPGEF6, Q8TEU7
IL16_4, Q14005 = target: IL16_4, Q14005
IL16_4, Q14005, sequence (Q14005 1229-1329): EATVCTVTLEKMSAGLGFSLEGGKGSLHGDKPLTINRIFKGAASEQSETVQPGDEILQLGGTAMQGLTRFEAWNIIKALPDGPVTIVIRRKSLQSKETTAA

Binder | pKd (MPP6, Q9NZW5) | pKd (IL16_3, Q14005) | pKd (GRIP1_4, Q9Y3R0) | pKd (DLG1_3, Q12959) | pKd (GRIP2_4, Q9C0E4) | pKd (FRMPD2_1, Q68DX3) | pKd (HTRA2, O43464) | pKd (MAGI1_1, Q96QZ7) | pKd (FRMPD3, Q5JV73) | pKd (LNX1_3, Q8TBB1) | pKd (NHERF4_4, Q86UT5) | pKd (SNTG1, Q9NSN8) | pKd (MAGI1_2, Q96QZ7) | pKd (APBA1_1, Q02410) | pKd (GRIP2_5, Q9C0E4) | pKd (LIN7A, O14910) | pKd (DLG3_3, Q92796) | pKd (LDB3, O75112) | pKd (MAST1, Q9Y2H9) | pKd (MPP7, Q5T2T1) | further results
QLGSPTADLA [SIPA1, Q96FS4] | below the threshold | below the threshold | below the threshold | below the threshold | below the threshold | below the threshold | below the threshold | below the threshold | below the threshold | below the threshold | below the threshold | below the threshold | below the threshold | below the threshold | below the threshold | below the threshold | below the threshold | below the threshold | 3.84 | below the threshold | pKd (PDZRN4_1, Q6ZMN7): below the threshold; pKd (Inadl_9, Q8NI35): below the threshold; pKd (GRIP2_6, Q9C0E4): below the threshold; pKd (HTRA1, Q92743): below the threshold; pKd (CASK, O14936): below the threshold; pKd (LNX1_1, Q8TBB1): below the threshold; pKd (LIMK2, P53671): below the threshold; pKd (RAPGEF6, Q8TEU7): below the threshold; pKd (IL16_4, Q14005): below the threshold
SRPHTNETSL [MCC, P23508] | below the threshold | below the threshold | below the threshold | 3.73 | below the threshold | below the threshold | below the threshold | below the threshold | below the threshold | below the threshold | below the threshold | 3.93 | 3.63 | below the threshold | below the threshold | below the threshold | 3.95 | below the threshold | 4.96 | below the threshold | pKd (PDZRN4_1, Q6ZMN7): 5.22; pKd (Inadl_9, Q8NI35): below the threshold; pKd (GRIP2_6, Q9C0E4): below the threshold; pKd (HTRA1, Q92743): below the threshold; pKd (CASK, O14936): below the threshold; pKd (LNX1_1, Q8TBB1): below the threshold; pKd (LIMK2, P53671): below the threshold; pKd (RAPGEF6, Q8TEU7): below the threshold; pKd (IL16_4, Q14005): below the threshold
NKSEPFLTWL [WWTR1, Q9GZV5] | 3.9 | below the threshold | below the threshold | below the threshold | below the threshold | below the threshold | 4.51 | 3.69 | 4.26 | below the threshold | 4.21 | below the threshold | 3.51 | 4.11 | below the threshold | below the threshold | below the threshold | 4.47 | 4.25 | 3.8 | pKd (PDZRN4_1, Q6ZMN7): 4.27; pKd (Inadl_9, Q8NI35): 4.23; pKd (GRIP2_6, Q9C0E4): below the threshold; pKd (HTRA1, Q92743): 4.91; pKd (CASK, O14936): below the threshold; pKd (LNX1_1, Q8TBB1): 4.13; pKd (LIMK2, P53671): below the threshold; pKd (RAPGEF6, Q8TEU7): below the threshold; pKd (IL16_4, Q14005): below the threshold

The next lines start with results.

pKd (MPP6, Q9NZW5) | pKd (IL16_3, Q14005) | pKd (GRIP1_4, Q9Y3R0) | pKd (DLG1_3, Q12959) | pKd (GRIP2_4, Q9C0E4) | pKd (FRMPD2_1, Q68DX3) | pKd (HTRA2, O43464) | pKd (MAGI1_1, Q96QZ7) | pKd (FRMPD3, Q5JV73) | pKd (LNX1_3, Q8TBB1) | pKd (NHERF4_4, Q86UT5) | pKd (SNTG1, Q9NSN8) | pKd (MAGI1_2, Q96QZ7) | pKd (APBA1_1, Q02410) | pKd (GRIP2_5, Q9C0E4) | pKd (LIN7A, O14910) | pKd (DLG3_3, Q92796) | pKd (LDB3, O75112) | pKd (MAST1, Q9Y2H9) | pKd (MPP7, Q5T2T1) | Binder | further results
4.7 | below the threshold | below the threshold | below the threshold | below the threshold | below the threshold | 4.1 | below the threshold | below the threshold | below the threshold | below the threshold | below the threshold | below the threshold | 3.65 | below the threshold | below the threshold | below the threshold | below the threshold | below the threshold | 5.18 | GDSSRKEYFI [GYPC, P04921] | pKd (PDZRN4_1, Q6ZMN7): below the threshold; pKd (Inadl_9, Q8NI35): 3.51; pKd (GRIP2_6, Q9C0E4): 4.67; pKd (HTRA1, Q92743): 4.74; pKd (CASK, O14936): below the threshold; pKd (LNX1_1, Q8TBB1): below the threshold; pKd (LIMK2, P53671): below the threshold; pKd (RAPGEF6, Q8TEU7): below the threshold; pKd (IL16_4, Q14005): below the threshold
below the threshold | below the threshold | below the threshold | below the threshold | below the threshold | 4.36 | 4.46 | below the threshold | below the threshold | below the threshold | below the threshold | below the threshold | below the threshold | below the threshold | below the threshold | below the threshold | below the threshold | below the threshold | 3.95 | below the threshold | PSVYSRSQYV [CLDN8, P56748] | pKd (PDZRN4_1, Q6ZMN7): below the threshold; pKd (Inadl_9, Q8NI35): 4.36; pKd (GRIP2_6, Q9C0E4): 3.48; pKd (HTRA1, Q92743): 5.03; pKd (CASK, O14936): below the threshold; pKd (LNX1_1, Q8TBB1): below the threshold; pKd (LIMK2, P53671): below the threshold; pKd (RAPGEF6, Q8TEU7): below the threshold; pKd (IL16_4, Q14005): below the threshold
